T1: EGR-chloromethylketone active-site inhibited des-(Gla-EGF1) FXa (Homo sapiens, EGR-chloromethylketone in the active site)
T1 chain 1: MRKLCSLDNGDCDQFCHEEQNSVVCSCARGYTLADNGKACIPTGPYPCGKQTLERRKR
T1 chain 2: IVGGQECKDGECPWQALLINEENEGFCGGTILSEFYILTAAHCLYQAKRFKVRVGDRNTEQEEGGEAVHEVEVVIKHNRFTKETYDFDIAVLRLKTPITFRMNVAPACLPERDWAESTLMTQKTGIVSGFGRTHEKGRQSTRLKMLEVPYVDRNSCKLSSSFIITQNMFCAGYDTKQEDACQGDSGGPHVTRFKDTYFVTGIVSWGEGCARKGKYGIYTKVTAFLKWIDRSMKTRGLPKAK


What was measured:
[1] = biological target: EGR-chloromethylketone active-site inhibited des-(Gla-EGF1) FIXa (Homo sapiens, EGR-chloromethylketone in the active site); assay: crystal structure
[2] = biological target: T1, EGR-chloromethylketone active-site …; assay: crystal structure

binding result [1]	binding result [2]	Binder
binds	–	Mim8 anti-FIXa Fab fragment (Fab, V domains shown) VH: EVQLVESGGGLVQPGRSLRLSCAASGFTFHDYAMHWVRQVPGKGLEWVSGISWRGDIGGYVKSVKGRFTISRDNAKNSLYLQMNSLRAEDTALYYCVKSYGSGSFYNAFDSWGQGTLVTVSS VL: DIQMTQSPSTLSASVGDRVTITCRASQSISSWLAWYQQKPGKAPKFLIYKASKLERGTPSRFSGSGDGTEFSLTISSLQPDDFATYYCLEYSSYIRTFGQGTKVEIK
–	binds	Mim8 anti-FX Fab fragment (Fab, V domains shown) VH: EVQLVQSGAEVKKPGESLRISCKGSGYSFSTSWIVWVRQMPGKGLEWMGMIDPSDSFTSYSPSFQGHVTISADKSISTAYLQWSSLKASDTAMYYCARLHYYNSEEFDVWGQGTLVTVSS VL: EIVLTQSPGTLSLSPGERATLSCRASQSVSSSYLAWYQQKPGQAPRLLIYGQSSRTRGIPDRFSGSGSGTDFTLTISRLEPEDFAVYYCQQFGDSQLFTFGQGTKLEIK
